The supplement of paper PMC10567573

B1: MFF (parent)
chain: MAEISRIQYEMEYTEGISQRMRVP
B2: RIPK4 (parent)
chain: VIDLFDEQGLSALHLAAQGRHAQT

Variants of: B1
Test: protein stability index of a GFP-peptide fusion (GPS, HEK-293T) (PSI 1-6); higher = more stable
Conditions: c terminus: a fixed tail appended
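Also: lentivirally expressed fusions sorted by FACS into six bins by GFP to DsRed ratio, PSI derived from sequencing read proportions per bin multiplied by bin number.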

Protein stability index, by site and new letter:
R20: K 2.72 | L 2.1 | M 2.13 | N 2.46 | P 2.73 | Q 2.3 | S 2.27 | T 2.66 | V 2.17 | W 1.67 | Y 1.58
M21: A 3.17 | C 2.32 | D 3.41 | E 3.58 | F 2.38 | G 3.62 | H 3.6 | I 2.42 | K 3.73 | L 2.26 | N 3.32 | P 3.59 | Q 3.12 | R 3.9 | S 3.31 | T 3.33 | V 2.79 | W 1.91 | Y 2.9
R22: A 2.63 | C 2.4 | D 2.6 | E 2.86 | F 1.69 | G 2.46 | H 2.46 | I 1.84 | K 2.8 | L 2.48 | M 2.38 | N 2.36 | P 2.56 | Q 2.43 | S 2.44 | T 2.98 | V 2.9 | W 2.01 | Y 2.23
V23: A 2.31 | C 2.87 | D 3.23 | E 2.73 | F 1.99 | G 2.72 | H 2.54 | I 2.07 | K 3.43 | L 2.46 | M 2.63 | N 2.61 | P 2.54 | Q 2.99 | R 2.73 | S 2.51 | T 2.56 | W 1.7 | Y 2.41
P24: A 2.16 | C 1.93 | D 2.7 | E 2.74 | F 1.54 | G 2.44 | H 2.02 | I 1.91 | K 2.98 | L 2.16 | M 2.21 | N 2.56 | Q 2.75 | R 2.87 | S 2.33 | T 3.42 | V 1.84 | W 1.32 | Y 1.85

Variants of: B2
Test: as above
Conditions: c terminus: a fixed tail appended

Protein stability index: each site, then its substitutions
A22: T 3.03 | Q 3.15 | V 2.42 | C 2.32 | Y 2.23 | F 2.19 | H 2.87
H21: A 2.41 | E 3.32 | G 2.86 | Y 2.47 | R 2.24 | V 2.72 | D 3.18 | I 2.28 | P 3.01 | M 2.56 | N 3.06 | L 2.66
H14: M 1.89 | L 2.33 | W 1.9 | T 2.95 | R 3.25
E7: D 2.73 | G 2.01 | H 2.17 | A 2.23 | P 2 | Q 2.35 | N 2.36 | L 1.92 | V 2.32
G19: F 1.91 | P 2.76 | T 2.37 | Y 2.66 | L 1.63 | V 1.71 | M 1.64 | S 2.99 | Q 3.07 | C 2.25 | W 1.99
I2: G 3.41 | K 3.89 | F 2.42 | T 3.64 | M 3.26 | E 4.42 | H 4.22 | A 3.92
S11: V 2.12 | L 2.36 | Q 2.95 | I 2.13 | H 2.51 | M 2.18 | E 3.11
T24: R 3.38 | V 2.69 | W 1.86 | D 3.76 | A 2.5 | L 2.09 | Q 2.51 | F 1.86 | C 2.57 | I 2.47 | M 2.63 | S 2.51
A16: F 1.99 | D 3.55 | I 2.35 | G 3.27 | S 3.15 | W 1.51 | C 2.59 | L 1.85 | K 2.98 | H 2.83
G9: W 1.69 | L 2.07 | R 2.4 | V 1.66 | N 3.41 | E 3.13 | S 2.68 | M 1.93 | C 2.19 | Q 2.75 | F 1.61 | K 2.56
D6: C 2.39 | Y 1.63 | Q 2.13 | N 1.96 | A 1.91 | K 1.81 | V 3.75 | I 4.12 | M 1.97 | G 1.77
R20: V 2.54 | E 3.7 | C 2.6 | T 3.14 | K 3.53 | Y 2.06 | D 3.82 | N 3.02 | W 2.02 | P 2.66 | H 2.8 | F 2.38 | S 3.26 | I 2.46
F5: S 3.67 | L 2.95 | C 3.08 | R 3.64 | I 2.89 | G 3.86 | H 3.9 | V 3.39 | Y 3.22
V1: S 3.62 | F 1.88 | M 3.37 | I 2.43 | D 4.32 | A 3.82 | L 2.7 | C 2.88 | G 3.61 | E 4.09 | R 3.41 | W 2.76
Q23: Y 2.06 | A 2.67 | D 3.69 | G 2.8 | K 3.17 | F 1.76 | V 2.53 | P 2.66 | E 3.48 | T 2.72 | S 2.6 | H 2.49
L4: N 3.12 | H 3.81 | F 2.66 | P 3.73 | Y 3.52 | S 3.94 | A 3.72 | Q 3.98 | E 4.29 | K 3.92 | D 4.18 | T 3.79 | G 3.89
Q8: V 2.53 | D 3.07 | T 2.65 | G 3.12 | F 2.05 | E 2.98 | L 1.66 | K 2.58 | M 2.08 | P 3.22 | H 2.61 | N 2.86
A17: G 2.72 | K 2.8 | W 1.75 | E 3.54 | Y 2.49 | Q 2.98 | I 2.69 | M 1.99 | V 2.92 | T 2.7 | L 1.98
Q18: P 2.82 | R 3.06 | F 2.01 | A 2.27 | K 2.17 | N 2.88 | Y 2.22 | G 2.9 | I 2.51
L13: Q 3.8 | K 3.61 | P 4.04 | R 3.31 | D 4.04 | E 4.17 | F 2.87 | V 3.06 | T 3.56 | M 3.66 | S 3.58 | N 3.3
A12: E 3.54 | L 1.98 | C 2.36 | S 2.96 | F 2.05 | R 3.12 | M 2.46 | I 1.91 | Q 3.29 | H 2.6 | Y 2.54
L10: K 3.31 | C 3.2 | F 2.83 | Y 2.75 | V 2.97 | M 3.04 | I 2.67 | R 3.23 | H 3.19
D3: V 1.58 | R 2.34 | I 2.71 | H 1.68 | L 1.89 | M 1.36 | Y 1.1 | A 1.79 | E 2.66 | T 2.17
L15: D 3.39 | S 4.01 | I 2.81 | A 3.31 | T 3.51 | H 3.3 | Q 3.3 | C 2.74 | F 2.41 | R 2.94
